Results from patent publication US20160083464A1 (MEDICAL AND BIOLOGICAL LABORATORIES, published 2016).

Key:
[1] = target: T1, human-derived transmembrane HB-EGF protein (wild type HB-EGF) (human, UniProt Q99075 20-208); experiment: flow cytometry on HB-EGF-expressing cells (summary of the selection)
T1 construct: also called human HB-EGF protein; cell surface HB-EGF

mutant HB-EGF F115A = mutant HB-EGF F115A (human, UniProt Q99075 20-208); experiment: flow cytometry on 293T cells transiently expressing the mutant, antibody 5 µg/mL
Protocol: (§1) First, prepared were cells expressing amino acid point mutant HB-EGF to be subjected to the flow cytometry. To be more specific, genes encoding mutant HB-EGF shown in Table 1 were prepared by site-directed mutagenesis using the HB-EGF-pQCxmhIPG as a template. The obtained mutant HB-EGF genes were each inserted into an animal cell expression vector pQCxmhIPG to prepare a vector encoding each mutant HB-EGF. […] Thus, cells expressing amino acid point mutant HB-EGF were prepared.
(§2) Next, each of the anti-HB-EGF antibodies (5 μg/mL) and a secondary antibody (manufactured by Beckman Coulter, Inc., catalog number: IM0855, this antibody was diluted to 1/200 for use)) were allowed to react with the cells expressing the wild type HB-EGF or each mutant HB-EGF, and the mean fluorescence intensity was analyzed by the flow cytometry. […] Then, based on the obtained mean fluorescence intensity (antibody reactivity), the binding strength (relative value) of each anti-HB-EGF antibody to each mutant HB-EGF was calculated according to the following formula (Formula *).

mutant HB-EGF I117A = mutant HB-EGF I117A (human, UniProt Q99075 20-208); experiment: as above
Protocol: as §1, §2

[2] = target: T1, human-derived transmembrane HB-EGF …; experiment: flow cytometry with 293T culture supernatant as primary antibody (the FIG. 11 legend says ELISA)
Protocol: The reactivity of the 35-1 chimeric antibody or the 35-1 humanized antibody with HB-EGF was evaluated by the flow cytometry.
The antibody concentration in the culture supernatant was calculated according to a sandwich ELISA method. […] After the plate was washed with 0.05% Tween 20-PBS, an HRP-labeled goat anti-mouse IgG (manufactured by MBL Co., Ltd., code number: 330) having been diluted to 1/10000 was added as a detection antibody in an amount of 50 μL/well and left to stand at room temperature for 1 hour. After the plate was washed with 0.05% Tween 20-PBS, a color developing solution was added thereto in an amount of 50 μL/well and left to stand at room temperature for 20 minutes to develop a color. The color development was terminated by adding 1 M phosphoric acid in an amount of 50 μL/well. Then, the absorbance at 450 nm was measured with a plate reader. Regarding the antibody concentration in the culture supernatant, a standard curve was created based on measured values obtained by serially diluting the antibody solution of a known concentration, and the antibody concentration was calculated from the measured values of the culture supernatant.

T1 sequence (Q99075 20-208): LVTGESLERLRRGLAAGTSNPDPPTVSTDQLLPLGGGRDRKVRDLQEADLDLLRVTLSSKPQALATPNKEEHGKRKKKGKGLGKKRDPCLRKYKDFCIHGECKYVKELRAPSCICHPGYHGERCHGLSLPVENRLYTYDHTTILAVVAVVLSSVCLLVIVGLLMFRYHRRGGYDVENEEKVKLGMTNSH
mutant HB-EGF I117A, sequence (Q99075 20-208 I117A): as the sequence (Q99075 20-208) above, with I98A counted along it
mutant HB-EGF F115A, sequence (Q99075 20-208 F115A): as the sequence (Q99075 20-208) above, with F96A counted along it

Row | Binder | binding result [1] | binding result (mutant HB-EGF F115A) | binding result (mutant HB-EGF I117A) | binding result [2]
1 | 35-1 antibody (antibody, mouse IgG1, V domains shown, Variable genes were amplified with mouse IgG1 CH1 and kappa constant region primers) VH: EVQLQQSGPELVKPRASVKISCKASGYSFSGYYMHWVKQSPEKSLEWIGEINPSTGGITYNQKFKAKATLTVDRSSSTAYMQLKSLTSEDSAVYYCTRITWAFAYWGQGTLVTVSA VL: QIVLTQSPAIMSASPGEKVTMTCSASSSVTYMYWYQQKPGSSPRLLIYDTSNLASGVPVRFSGSGSGTSYSLTISRMEAEDAATYYCQQWSSYPPTFGGGTKLEIK | binds | binds | binds | 
2 | 35-1 chimeric antibody (antibody, V domains shown, Variable regions of the 35-1 antibody in Lonza human IgG1 antibody producing vectors (human IgG1 constant region); also called chimerized 35-1 antibody) VH: EVQLQQSGPELVKPRASVKISCKASGYSFSGYYMHWVKQSPEKSLEWIGEINPSTGGITYNQKFKAKATLTVDRSSSTAYMQLKSLTSEDSAVYYCTRITWAFAYWGQGTLVTVSA VL: QIVLTQSPAIMSASPGEKVTMTCSASSSVTYMYWYQQKPGSSPRLLIYDTSNLASGVPVRFSGSGSGTSYSLTISRMEAEDAATYYCQQWSSYPPTFGGGTKLEIK |  |  |  | binds
3 | 292 antibody (antibody, mouse IgG1, V domains shown, Variable genes were amplified with mouse IgG1 CH1 and kappa constant region primers) VH: EVQLQQSGPELVKPGASVKISCKASGYSFTGYYMHWVKQSPEKSLEWIGEINPSTGGTTYNQKFKAKATLTLDKSSSTAYMQLKSLTSEDSAVYYCAKSPYWDGAYWGQGTLVTVSA VL: QIVLTQSPAIMSASPGEKVTMTCSASSSISYMYWYQQRPGSSPRLLIYDTSNLASGVPVRFSGSGSGTSHSLTISRMEAEDAATYYCQQWSSYPSTFGGGTKLEIK | binds | binds | binds | 
4 | 35-1 humanized antibody (antibody, V domains shown, CDR-grafted variable regions in a Lonza human IgG1 vector (human IgG1 constant region); also called humanized 35-1 antibody) VH: QVQLVQSGAEVVKPGSSVKVSCKASGYSFSGYYMHWVKQAPGQGLEWIGEINPSTGGITYNQKFKAKATLTVDRSTSTAYMELKSLTSEDTAVYYCTRITWAFAYWGQGTTVTVSS VL: QIVLTQSPTTMAASPGEKITITCSASSSVTYMYWYQQRPGFSPKLLIYDTSNLASGVPVRFSGSGSGTSYSLTIGTMEAEDVATYYCQQWSSYPPTFGGGTKLEIK |  |  |  | binds
